Test results from paper PMC3269379, “The Host-Pathogen interaction of human cyclophilin A and HIV-1 Vpr requires specific N-terminal and novel C-terminal domains” (BMC Structural Biology, 2011).
“And” between values parts separate entries of the source, which are not always exact repeats. Equal values may be shown once.

B1: Vpr^75-90 (peptide)
peptide: GCRHSRIGVTRQRRAR
notes: HIV-1 Vpr residues 75-90; source: synthetic peptide
B2: full-length synthetic HIV-1 Vpr (Vpr^1-96) (natural protein)
chain: MEQAPEDQGPQREPYNEWTLELLEELKSEAVRHFPRIWLHNLGQHIYETYGDTWAGVEAIIRILQQLLFIHFRIGCRHSRIGVTRQRRARNGASRS

Experiments:
Conditions in all cases: both partners purified
human cyclophilin A [1] = target: T1, human cyclophilin A (human, UniProt P62937 1-165); assay: ITC
T1 construct: also called CypA; peptidyl prolyl isomerase cyclophilin A; source: recombinant, highly pure; production and purification described previously [14]
T1 sequence (P62937 whole entry): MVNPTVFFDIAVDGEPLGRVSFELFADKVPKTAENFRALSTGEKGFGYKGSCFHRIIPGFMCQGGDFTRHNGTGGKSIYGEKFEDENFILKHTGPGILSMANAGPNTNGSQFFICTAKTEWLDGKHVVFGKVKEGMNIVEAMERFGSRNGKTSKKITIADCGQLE

human cyclophilin A [2] = target: T1, human cyclophilin A; assay: SPR
human cyclophilin A [3] = target: T1, human cyclophilin A; assay: SPR; remark: listed apart in the source

Binder | Ka (human cyclophilin A [1]) | Kd (human cyclophilin A [1]) | dH (human cyclophilin A [1]) | stoichiometry N (human cyclophilin A [1]) | Kd (human cyclophilin A [2]) | koff (human cyclophilin A [2]) | kon (human cyclophilin A [2]) | binding result (human cyclophilin A [3])
B1 | 9e+06 M⁻¹ and 1.7e+07 M⁻¹ | 120 nM and 60 nM | -17.4 kcal/mol and -16.5 kcal/mol | 0.98 and 1 | 280 nM | 0.0063 s⁻¹ | 81000 M⁻¹ s⁻¹ | –
GCRHSAIGVTRQRRAR (source: synthetic peptide) [Vpr^75-90 (R80A)] | – | – | – | – | 7500 nM | 0.027 s⁻¹ | 3800 M⁻¹ s⁻¹ | –
B2 | – | – | – | – | 310 nM and 320 nM | 0.007 s⁻¹ and 0.00422 s⁻¹ | 32000 M⁻¹ s⁻¹ and 16000 M⁻¹ s⁻¹ | –
AVRHFPRIWLH [Vpr^30-40] | – | – | – | – | – | – | – | binds
